Assay: yeast display, Sf9 membrane polyspecificity reagent, FACS + sequencing; frameworks hold sequencing errors
Procedure, shortened: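 Using colony PCR, genes from sorted yeast display clones were amplified, then sequenced on MiSeq at 2 × 250 and filtered by CDR length. The clones had been stained with 10% biotinylated, detergent-solubilized Sf9 membrane reagent for 1 hour at 4 °C and sorted by FACS into low and high (top ~1%) gates on anti-HA and streptavidin fluorescence. Polyreactivity labels come from the gate of origin.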

Row | Sequence | polyreactivity (PSR sort gate)
1 | QVQLVESGGGLVQAGGSLRLSCAASGIIFSGYAMGWYRQAPGKERELVASIRSGSNTYYADSVKGRFRISRDNAKNTVYLQMNSLKPEDTAVYYCAARVVPATFRFIRYPHPYYYWGQGTQVTVSS | low polyreactivity
2 | QVQLVESGGGLVQAGGSLRLSCAASGIIFSHNVMGWYRQAPGKERELVAAITYSGGSTYYADSVKGRFTISRDNAKNTVYLQMNSMKPEDTAVYYCNAVTYSSPYRFDYWGQGTQVTVSS | low polyreactivity
3 | QVQLVESGGGLVQAGGSLRLSCAASGIIFSIYAMGWSRQAPGKERELVAAISGRGGRTYYADSVKGRFTMSRDNAKNTVYLQMNSLKPEDTAVYFCAAGAHAYAHYSWFYFRMHYWGQGTQVTVSS | low polyreactivity
4 | QVQLVESGGGLVQAGGSLRLSCAASGIIFSKNAMGWYRQAPGKERELVATINRSGGSTYADSVKGRFTISRDNAKNTVYLQMNSLKPEDTAVYYCAKRASPFWRGYDSWGQGTQVTVSS | low polyreactivity
5 | QVQLVESGGGLVQAGGSLRLSCAASGIIFSPYAMGWYRQAPGKERELVAAITNNGGGTYYADSVKGRFTISRDNAKNTVYLQMNSLKPEDTAVYYCAAEGFLEYPYYIWYDYWGQGTQVTVSS | high polyreactivity
6 | QVQLVESGGGLVQAGGSLRLSCAASGIIFSSNAMGWYRQAPGKERELVAAISRSGGSTYYADSVKARFTISRDNAKKTVYLQMNSLKPEDTAVYDCAAVYRRGHEYDYWRQGTQVTVSS | high polyreactivity
7 | QVQLVESGGGLVQAGGSLRLSCAASGIIFSTYAMGWYRHAPWKERELVAAITRGDSTNYADSVKGRFTISRDNAKNTVYLQMNSLKPEDTAVYYCAVDKRYGRVVGRDYDYWGQGTQVTVSS | high polyreactivity
8 | QVQLVESGGGLVQAGGSLRLSCAASGIIFSVYAMGWYRQAPGTERELVAAISGSGGSTYYADSVKGRFTISRDNAKNTVYLQMNSLKPEDTAVYYCAARKKWSIRSDYWGQGTQVTVSS | high polyreactivity
9 | QVQLVESGGGLVQAGGSLRLSCAASGIIFSYNVMGWYRQAPGTERELVAGISRSGGSTYYADSVKGRFTISRDNAKNTVYLQMNSLKPEDTAVYYCNRVSYGPYYSYWSDFGYWGQGTQVTVSS | high polyreactivity
10 | QVQLVESGGGLVQAGGSLRLSCAASGIIFSYYAMGWYIQAPGKERELVAAISSSGVSTNYADSVKGRFTISRDNAKNTVYLQMNSLKPEDTAVYYCNARGYYWYRPYVNSNGGYWGQGTQVTVSS | high polyreactivity
11 | QVQLVESGGGLVQAGGSLRLSCAASGIIFSYYPMGRYRQAPGIERELVAAISRSGGNTYYADSVKGRFTISRDNAKNTVYVQMNSLKPEDTAVYYCAVGWYDDYYYGYDYWGQGTQVTVSS | high polyreactivity
12 | QVQLVESGGGLVQAGGSLRLSCAASGIIFTANVMGWYRHAPGKERELDAVISLSGGITFYADSVKGRFTISRDNAKNTVYLQMNSLKPEDTAVYYCAAEPWYSWKTEEDYWGQGTQVTVTS | low polyreactivity
13 | QVQLVESGGGLVQAGGSLRLSCAASGIIFTDYAMGWDRQAPGKERELVAAISSGGGSTYYADSVKGRFTISRDNAKNTVYIQLNSQKPEDTAVYYCAAEGYLISGACDYLYDYYWGQGTQVTVSS | high polyreactivity
14 | QVQLVESGGGLVQAGGSLRLSCAASGIIFTGYAMGWYRQAPGKERELVAAISDTGGSTYYADSVKGRFTISRDNAKNTVYLQMNSLKPEDTAVYYCAADWWSRYYYWGQGTQVTVSS | high polyreactivity
15 | QVQLVESGGGLVQAGGSLRLSCAASGIIFTLYAMGWYRQAPGKERELVATISTGGGTYYADSVKGRFTISRDNAKNTVYLQMNSLKPEDTAVYYCNAVKLLGTRGYGYWGQGTQVTVSS | high polyreactivity
16 | QVQLVESGGGLVQAGGSLRLSCAASGIIFTSNTMGWYRQAPGKEREFVASINWNGSSTYADSVKGRFTISRDNAKNTVYLQMNSMKPEDTAVYYCNADYNRNSVQFSLYDYWGQGTQVTVSS | low polyreactivity
17 | QVQLVESGGGLVQAGGSLRLSCAASGIIFTTYVMGWYRHAPGTESELVAAISRGGRTYYADSVKGRFTLSRDNAKHTVYLQMNSLKPEDTAVYYCARVAYKGYGEDDYWGQGTQVTVSS | high polyreactivity
18 | QVQLVESGGGLVQAGGSLRLSCAASGIIFTYAMGWYRQAPGKERELVAAIDWRGGRTYYADSVKGRFTISRDNAKNTVYLQMNSLKPEDTAVYYCAARLPGGTYYWGQGTQVTVSS | high polyreactivity
19 | QVQLVESGGGLVQAGGSLRLSCAASGIIFVKNAMGWYRQAPGKVRELVAAISRSGARTYYADSVKGRFTISRDNAKNTVYLLMNSLKPEDSAVYYCNKVVRYGHTRKIDTESDYWGQGTQVTVSS | high polyreactivity
20 | QVQLVESGGGLVQAGGSLRLSCAASGIIFVKYAMGWYRQAPGKERELVAAITSGGSTYYADSVKGRFTISRDNAKNTVYLQMNSLKPDDTAVYYCNADSWFLYYFTINGYWGQGTQVTVSS | high polyreactivity
21 | QVQLVESGGGLVQAGGSLRLSCAASGIIFVPYAMGWYRQAPGKERELVAANNSGGNTYYADSVKGRFTISRDNAKNTVYLLIYSLKPEDTAVYYCGAYSKYPVFDYNYWGQGTQVTVSS | high polyreactivity
22 | QVQLVESGGGLVQAGGSLRLSCAASGIIFVRNAMGWYRKAPGKERELVAAISRSGGSTYYADSVKWRFTISRDNAKNTVYLQMNSLKPEDTAVYYCAAVLRLSSGYDYWGQGTQVTVSS | high polyreactivity

Row | Sequence | polyreactivity (PSR sort gate)
23 | QVQLVESGGGLVQAGGSLRLSCAASGIIFVRYAMGWYIQAPGKERELVAAINSRGNTYYADSVKGRFTISRDNAKNSVYLQMNSLKPEDTAVYYCAKYNSWGQGTQVTVSS | high polyreactivity
24 | QVQLVESGGGLVQAGGSLRLSCAASGIIFVSYDMGWYRQAPGKERELVAAINRGGRTYYADSVKGRFTISRDNAKNTVYLQMNSLKAEDTAVYYCAAQFHFRPFSLTYDYWGQGTQLTVSS | high polyreactivity
25 | QVQLVESGGGLVQAGGSLRLSCAASGIIFVWYTMGWYRQAPGKERELVAAIDSIGDGTYYADSVKGRFTISRDNAKNTVYLQMNSLKPEDTAVYYCAVDDYYEMDYWGQGTQVTVSS | low polyreactivity
26 | QVQLVESGGGLVQAGGSLRLSCAASGIIFVYYTMGWYRQAPGKERELVAAITSGGSTYYADSVKGRFTISRDNAKNTVYLQMNSLKPEDTAVYYCAAVGRPPYAGDRGYWGQGTQVTVSS | high polyreactivity
27 | QVQLVESGGGLVQAGGSLRLSCAASGIIFWWYAMGWYRQAPGKERELVAAISGTGGSTYYADSVKGRFTISRDNAKNTVYLQMNSLKPEDTAVYYCAKRASPFWRGYDSWGQGTQVTVSS | low polyreactivity
28 | QVQLVESGGGLVQAGGSLRLSCAASGIIFYANVMGLYRQAPGKERELVAGISRNGGRTYYADSVKGRFTISRDNAKNTVYLQMNSLKPADTAVYYCAALGSYTSIFDYWGQGTQVTVSS | high polyreactivity
29 | QVQLVESGGGLVQAGGSLRLSCAASGIIFYDYAMGWYRQAPGKERELVAAITSGGSTNYADSVKGRFTISRDNAKNTVYLQMNSLKPEDTAVYYCAATYWSWIPLRFYRGQGTQVTVSS | low polyreactivity
30 | QVQLVESGGGLVQAGGSLRLSCAASGIIFYDYAMGWYRQAPGKERELVAAITSNGDNTYYADSVKGRFTISRDNAKNTVYLPMNSLKPEDTAVYYCAVDGSFAADFDNYLEEYGYWGQGTQVTVSS | low polyreactivity
31 | QVQLVESGGGLVQAGGSLRLSCAASGIIFYENAMGWYRQAPGKERELVAAIDGDDGGTDYADSVKGRFTISRDNAKNTVYLQMNSLKPEDTAVYYCAADFGAETGYYYWGQGTQVTVSS | low polyreactivity
32 | QVQLVESGGGLVQAGGSLRLSCAASGIIFYEYVMGWYRPAPGKERELVAAINRSGGSTYYADSVKGRFTISRDNAKNTVYLQMNSLKPEDTAVYYCAASSTYDGRKYYYWGQGTQVNVSS | high polyreactivity
33 | QVQLVESGGGLVQAGGSLRLSCAASGIIFYEYVMGWYRQAPGKEREVVATISSIGGATYYADSVKGRFTISRDNAKNTVYLQMNSLKPEDTAVDYCAADPEPVVARGGNWYGDDDWGQGTQVTVSS | high polyreactivity
34 | QVQLVESGGGLVQAGGSLRLSCAASGIIFYFYAMGWYRQAPGKERELVATITWSGTSTNYADSVKGRFTISRDNAKNTVYLQMNSLKPEDTAVYYCAARWPTGRNGYWGQGTQVTVSS | high polyreactivity
35 | QVQLVESGGGLVQAGGSLRLSCAASGIIFYGYAMGWYRQAPGKERDLVAAISSGGGTNYADSVKGRFTISRDNAKNTVYLQMNSLIPEDTAVYYCASRQYRRVKQGNYWGQGTQVTVSS | high polyreactivity
36 | QVQLVESGGGLVQAGGSLRLSCAASGIIFYGYAMGWYRQAPGKERELVAAITYSGGSTYYADSVKGRFTISRDNAKNTVYLQMNSLKPEDTAVYYCAAYDAYSPYQALYDYWGQGTQVTVSS | low polyreactivity
37 | QVQLVESGGGLVQAGGSLRLSCAASGIIFYKYAMGWYRQAPGKERELVAVISSGGSTYYADSVKGRFTISRDNAKNTVYLQMNSLKPEYNAVYYCNADCYRRGYDYWGKGTQVTVSS | high polyreactivity
38 | QVQLVESGGGLVQAGGSLRLSCAASGIIFYLYAMGWYRQAPGKERELVAAISGSGGNTYYADSVKGRFTISRDNAKNTVYLQMNSLKPEDTAVYYCAVAVFVWYAVIPYAEYDYWGQGTQVTVSS | high polyreactivity
39 | QVQLVESGGGLVQAGGSLRLSCAASGIIFYPYAMGWYSLAPGKERELVAAISQSGGTTSYADSVKGRFTISRDNAKNTVYLQMNSLKPEDTAVYYCARRVSTRKRYYYWGQGTQVTVSS | high polyreactivity
40 | QVQLVESGGGLVQAGGSLRLSCAASGIIFYRNARGWYRQAPGKERELVAAISSRGGNTYYADSVKGRFTISRDNAKNTVYLQMNSLQPEDTAVYYCARDSYSLSRTYDSWGQGTQVTLSS | high polyreactivity
41 | QVQLVESGGGLVQAGGSLRLSCAASGIIFYRYAMGWYRQAPGKEWELVAAITRRGGSTYYADSVKGRFTISRDNAKNTVYLQMNSLKPEDTGVYYCNARVRYTSADPSYYSWGQGTQVTVSS | high polyreactivity
42 | QVQLVESGGGLVQAGGSLRLSCAASGIIFYRYTMGWYRQAPGKERELVAAITSGGDTNYADSVKGRFTISRDNAKNTVYLQMNSLKPEDTAVYYCNADCWWYLYLYDFWGQGTQVTVSS | high polyreactivity
43 | QVQLVESGGGLVQAGGSLRLSCAASGIIFYSYAMGWYRQAPGKERELVAAISRSSGRTYYADSVKGRFTISRDNAKNTVYLQMNSLKPEDTAVYYCATDYYYYPWEYDYWGQGTQVTVSS | high polyreactivity

From the nanobody polyreactivity screen of Harvey et al. (2022)
